Assay results published in patent US20140072613A1, “Compositions and Methods for Treating Cutaneous Scarring” (priority 2012, published 2014).

Key:
Experiment in all cases: biochemical
Type in all cases: biochemical
266 human kinases [1] = biological target: 266 human kinases (Homo sapiens, UniProt P16234); conditions: PDGFRα(h); 100 μM
Summary of the method: (§1)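 Radiometric filter-binding format: a positively charged substrate takes up radiolabelled phosphate from ATP unless the kinase is inhibited, then is captured on a negatively charged filter membrane. Counts from scintillation are expressed relative to a 100% activity control.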

266 human kinases [2] = biological target: T1, 266 human kinases (Homo sapiens, UniProt P29323); conditions: EphB2(h); 100 μM
T1 sequence (P29323 19-1055): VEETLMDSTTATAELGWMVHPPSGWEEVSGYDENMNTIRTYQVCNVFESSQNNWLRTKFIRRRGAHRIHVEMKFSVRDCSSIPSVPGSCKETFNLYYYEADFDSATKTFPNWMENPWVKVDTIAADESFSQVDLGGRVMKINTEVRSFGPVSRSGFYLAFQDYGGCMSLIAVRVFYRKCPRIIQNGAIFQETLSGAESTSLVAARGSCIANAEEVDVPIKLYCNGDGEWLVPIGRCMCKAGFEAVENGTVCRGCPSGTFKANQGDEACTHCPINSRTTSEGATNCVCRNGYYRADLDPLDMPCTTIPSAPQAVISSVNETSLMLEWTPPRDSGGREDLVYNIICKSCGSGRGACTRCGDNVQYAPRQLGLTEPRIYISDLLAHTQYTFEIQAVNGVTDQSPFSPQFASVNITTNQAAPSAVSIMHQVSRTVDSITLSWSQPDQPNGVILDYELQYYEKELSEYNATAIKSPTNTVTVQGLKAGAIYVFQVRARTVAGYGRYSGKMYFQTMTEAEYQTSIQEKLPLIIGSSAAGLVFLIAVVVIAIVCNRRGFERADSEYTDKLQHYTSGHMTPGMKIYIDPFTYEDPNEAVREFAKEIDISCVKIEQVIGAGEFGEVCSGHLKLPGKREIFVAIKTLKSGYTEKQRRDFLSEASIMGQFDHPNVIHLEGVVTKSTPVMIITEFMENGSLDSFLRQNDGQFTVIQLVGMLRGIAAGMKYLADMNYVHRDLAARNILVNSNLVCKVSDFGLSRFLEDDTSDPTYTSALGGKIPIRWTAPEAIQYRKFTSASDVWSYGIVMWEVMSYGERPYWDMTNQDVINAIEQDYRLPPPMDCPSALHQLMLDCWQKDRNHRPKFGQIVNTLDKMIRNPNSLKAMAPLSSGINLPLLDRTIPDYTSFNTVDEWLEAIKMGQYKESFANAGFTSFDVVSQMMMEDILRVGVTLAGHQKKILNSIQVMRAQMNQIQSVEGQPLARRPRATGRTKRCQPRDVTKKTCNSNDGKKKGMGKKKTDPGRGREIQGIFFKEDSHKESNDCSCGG
Summary of the method: as §1

266 human kinases [3] = biological target: T2, 266 human kinases (Homo sapiens, UniProt P54760); conditions: EphB4(h); 100 μM
T2 sequence (P54760 16-987): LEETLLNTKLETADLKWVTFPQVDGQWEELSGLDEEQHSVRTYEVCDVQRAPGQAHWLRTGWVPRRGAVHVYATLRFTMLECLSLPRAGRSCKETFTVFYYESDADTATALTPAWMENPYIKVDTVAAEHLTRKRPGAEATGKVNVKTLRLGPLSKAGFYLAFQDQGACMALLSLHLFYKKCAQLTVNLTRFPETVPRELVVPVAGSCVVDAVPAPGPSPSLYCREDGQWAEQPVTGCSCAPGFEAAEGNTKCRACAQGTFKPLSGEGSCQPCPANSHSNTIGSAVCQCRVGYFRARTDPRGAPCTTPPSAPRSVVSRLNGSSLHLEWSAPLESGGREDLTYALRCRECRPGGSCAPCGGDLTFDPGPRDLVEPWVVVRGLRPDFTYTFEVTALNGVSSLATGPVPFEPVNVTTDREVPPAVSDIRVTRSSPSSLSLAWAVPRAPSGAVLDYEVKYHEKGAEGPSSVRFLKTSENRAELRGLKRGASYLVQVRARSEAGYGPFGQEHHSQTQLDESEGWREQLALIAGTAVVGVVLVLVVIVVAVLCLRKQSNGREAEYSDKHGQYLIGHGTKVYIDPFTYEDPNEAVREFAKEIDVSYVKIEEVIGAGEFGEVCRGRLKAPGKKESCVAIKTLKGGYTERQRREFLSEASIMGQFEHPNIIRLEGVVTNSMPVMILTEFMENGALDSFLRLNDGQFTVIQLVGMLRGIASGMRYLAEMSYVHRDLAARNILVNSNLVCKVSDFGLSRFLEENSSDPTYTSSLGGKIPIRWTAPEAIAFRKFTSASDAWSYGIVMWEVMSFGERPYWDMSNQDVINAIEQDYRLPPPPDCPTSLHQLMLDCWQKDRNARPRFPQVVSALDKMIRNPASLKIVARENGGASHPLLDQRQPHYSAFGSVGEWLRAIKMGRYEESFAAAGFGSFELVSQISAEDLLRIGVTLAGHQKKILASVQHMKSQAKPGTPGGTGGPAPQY
Summary of the method: as §1

266 human kinases [4] = biological target: T3, 266 human kinases (Homo sapiens, UniProt P43403); conditions: ZAP-70(h); 100 μM
T3 sequence (P43403 1-619): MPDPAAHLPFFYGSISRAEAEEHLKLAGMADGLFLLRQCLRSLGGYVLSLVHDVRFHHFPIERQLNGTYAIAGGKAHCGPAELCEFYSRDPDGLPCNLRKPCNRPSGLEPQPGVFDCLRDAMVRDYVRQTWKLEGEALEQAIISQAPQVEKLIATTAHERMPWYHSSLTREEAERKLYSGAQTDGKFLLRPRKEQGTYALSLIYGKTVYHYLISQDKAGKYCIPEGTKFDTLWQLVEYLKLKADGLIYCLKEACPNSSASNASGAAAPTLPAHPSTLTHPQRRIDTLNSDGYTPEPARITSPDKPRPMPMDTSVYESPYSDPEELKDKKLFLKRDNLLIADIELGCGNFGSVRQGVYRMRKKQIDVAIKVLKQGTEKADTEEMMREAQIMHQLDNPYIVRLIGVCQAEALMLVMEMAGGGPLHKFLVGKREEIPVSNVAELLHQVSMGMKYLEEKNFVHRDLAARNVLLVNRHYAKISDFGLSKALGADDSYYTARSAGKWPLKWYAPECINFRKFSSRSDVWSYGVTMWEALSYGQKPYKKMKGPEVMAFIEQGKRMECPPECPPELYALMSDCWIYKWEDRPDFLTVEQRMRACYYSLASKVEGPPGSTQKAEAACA
Summary of the method: as §1

266 human kinases [5] = biological target: 266 human kinases (Homo sapiens, UniProt P17612); conditions: PKA(h); 100 μM
Summary of the method: as §1

266 human kinases [6] = biological target: 266 human kinases (Homo sapiens, UniProt Q13131); conditions: AMPKα1(h); 100 μM
Sequence of 266 human kinases (Homo sapiens, UniProt Q13131) (Q13131 whole entry): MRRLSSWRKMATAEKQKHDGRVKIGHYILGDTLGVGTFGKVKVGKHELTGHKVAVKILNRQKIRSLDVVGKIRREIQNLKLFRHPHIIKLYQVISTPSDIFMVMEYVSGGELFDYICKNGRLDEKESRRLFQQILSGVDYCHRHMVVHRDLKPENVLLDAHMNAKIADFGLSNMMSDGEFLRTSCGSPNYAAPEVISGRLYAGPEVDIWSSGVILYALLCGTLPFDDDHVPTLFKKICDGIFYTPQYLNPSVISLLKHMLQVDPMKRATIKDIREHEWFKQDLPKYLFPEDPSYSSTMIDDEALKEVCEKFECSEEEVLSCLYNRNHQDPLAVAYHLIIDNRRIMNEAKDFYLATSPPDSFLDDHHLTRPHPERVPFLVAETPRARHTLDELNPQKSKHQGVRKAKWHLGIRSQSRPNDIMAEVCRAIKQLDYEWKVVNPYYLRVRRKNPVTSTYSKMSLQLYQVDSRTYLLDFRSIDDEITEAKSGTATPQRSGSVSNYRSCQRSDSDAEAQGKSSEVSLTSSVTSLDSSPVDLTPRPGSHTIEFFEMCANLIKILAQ
Summary of the method: as §1

Sequence of 266 human kinases (Homo sapiens, UniProt P16234) (P16234 24-1089): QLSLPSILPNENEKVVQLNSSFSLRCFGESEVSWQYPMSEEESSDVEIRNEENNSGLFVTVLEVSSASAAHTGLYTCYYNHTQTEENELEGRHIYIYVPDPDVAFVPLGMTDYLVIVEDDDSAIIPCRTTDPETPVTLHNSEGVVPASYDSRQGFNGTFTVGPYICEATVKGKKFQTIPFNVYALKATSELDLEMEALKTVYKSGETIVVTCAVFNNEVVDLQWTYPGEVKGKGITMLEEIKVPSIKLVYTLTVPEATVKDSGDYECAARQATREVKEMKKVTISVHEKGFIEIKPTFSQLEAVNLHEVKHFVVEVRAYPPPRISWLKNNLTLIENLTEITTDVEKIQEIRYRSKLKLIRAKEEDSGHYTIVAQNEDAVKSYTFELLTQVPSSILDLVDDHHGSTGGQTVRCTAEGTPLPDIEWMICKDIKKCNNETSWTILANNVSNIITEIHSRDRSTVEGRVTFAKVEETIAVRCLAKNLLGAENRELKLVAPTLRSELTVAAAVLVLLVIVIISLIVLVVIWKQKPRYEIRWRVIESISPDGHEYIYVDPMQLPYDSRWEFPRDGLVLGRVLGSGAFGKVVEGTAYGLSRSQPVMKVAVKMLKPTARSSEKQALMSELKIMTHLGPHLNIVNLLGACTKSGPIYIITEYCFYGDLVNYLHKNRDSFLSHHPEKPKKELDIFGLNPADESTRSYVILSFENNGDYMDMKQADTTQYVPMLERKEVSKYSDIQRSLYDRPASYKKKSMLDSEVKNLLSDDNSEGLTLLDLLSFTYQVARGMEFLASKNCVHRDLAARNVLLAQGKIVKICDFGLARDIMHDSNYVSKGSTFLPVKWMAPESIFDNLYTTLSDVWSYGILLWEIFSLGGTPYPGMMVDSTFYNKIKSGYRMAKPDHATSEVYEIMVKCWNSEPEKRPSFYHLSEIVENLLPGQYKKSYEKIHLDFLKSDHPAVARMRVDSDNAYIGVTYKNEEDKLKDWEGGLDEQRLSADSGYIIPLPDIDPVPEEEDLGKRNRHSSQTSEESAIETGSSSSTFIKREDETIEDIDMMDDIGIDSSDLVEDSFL

Row | Sequence | % activity (266 human kinases [1]) [%] | % activity (266 human kinases [2]) [%] | % activity (266 human kinases [3]) [%] | % activity (266 human kinases [4]) [%] | % activity (266 human kinases [5]) [%] | % activity (266 human kinases [6]) [%]
1 | HRRIKAWLKKIKALARQLGVAA (mammal) [MMI-0500] | 40 | 70 | 38 | 1 | 118 | 35
2 | YARAAARQARAKALNRQLGVA (mammal) [MMI-0200] | 108 | 128 | 131 | 58 | 110 | 108
